Source: doi:10.1101/2024.06.20.599739 (2024)

Columns and labels:
Test in all cases: SPR
[1] = target: EvoBind2 linear design, adversarial selection, length 11
[2] = target: linear 19 ()
[3] = target: linear 11 ()
[4] = target: linear 15 ()
[5] = target: linear 12 ()

B1: MBP-8xHis-1SCC (semi-synthetic Ribonuclease, PDB ID 1SSC) (enzyme)
chain: KETAAAKFERQHMDSSTSAASSSNYCNQMMKSRNLTKDRCKPVNTFVHESLADVQAVCSQKNVACKNGQTNCYQSYSTMSITDCRETGSSKYPNCAYKTTQANKHIIVACEG
In the case of B1, the Kd [1] is reported as 1.21 µM, the Kd [2] is reported as 7.18 µM and the Kd [3] is reported as 7.54 µM. It also gave a Kd [4] of 4.34 µM and a Kd [5] of 0.728 µM.
